How the values were obtained:
MS2 coat protein [1] = assay: apparent KD of MS2 coat protein, switch ON state; designed switch direction (-1 OFF switch, 1 ON switch): -1; higher = weaker reporter binding; settings: FMN input: 0 or 200 uM; Eterna round: R93 (includes R88 designs)
Procedure, shortened: (§1)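 Designed RNA switches were made by on-chip transcription from Illumina sequencing clusters and then titrated with SNAP-549-labelled MS2 coat protein. Twofold steps ran from 0.7 or 1.5 nM to 3 µM, each lasting 0.8–1.5 h early and 10–20 min late, in 100 mM Tris-HCl pH 7.5, 80 mM KCl, 4 mM MgCl2, without or with constant ligand. Apparent KD is the per-design median of normalised cluster binding-curve fits.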

MS2 coat protein [2] = assay: apparent KD of MS2 coat protein, switch OFF state (with FMN for OFF switches, without FMN for ON switches); designed switch direction (-1 OFF switch, 1 ON switch): -1; higher = weaker reporter binding; settings: FMN input: 0 or 200 uM; Eterna round: R93 (includes R88 designs)
Procedure, shortened: as §1

MS2 coat protein [3] = assay: apparent KD of MS2 coat protein; designed switch direction (-1 OFF switch, 1 ON switch): 1; higher = weaker reporter binding
Procedure, shortened: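 Designed RNA switches with common flanks were transcribed on Illumina chips by stalled E. coli RNA polymerase and titrated with SNAP-549-labelled MS2 coat protein, from 0.7 or 1.5 nM doubling to 3 µM, in Tris-HCl pH 7.5 buffer with KCl, MgCl2, BSA, DTT, tRNA and Tween-20. Steps lasted 0.8–1.5 h (lowest) to 10–20 min (highest). Titrations ran without input, with 200 uM small-molecule ligand, or with an oligonucleotide input. Normalised cluster fluorescence was curve-fitted, and apparent KD is the per-design median over clusters.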

[4] = input ligand: microRNA oligo, concentration not stated

Sequence | apparent KD of MS2 coat protein (MS2 coat protein [1]) [nM] | apparent KD of MS2 coat protein (MS2 coat protein [2]) [nM] | other results
AGCAGUACAGGAUAUACAUGAGGAUCACCCAUGUGAAAAUAAAGUGGCGUACCACAAAGUAGAAGGGUACUGCA [Mat - Exclusion 3 - JL mod - D31] | 34.2 | 104 | –
AAAAAGUGAGGAUAUACGCUGAAGAGUAGACACAACCAGGCGUAGAAGGCACAUGAGGAUCACCCAUGUCCAAA [Ex4 Malc#10] | 21.2 | 41.2 | –
AAAACGGCAGGAUAUACAGAAGAGAUCACGAAAAAAAAAAAACAUGAGGAUCACCCAUGUAGAAGGGCCAAAAA [Ex2 Malc#4] | 117 | 66.3 | –
AAAAAAAGAGGAUAUACGUACAUGUCAAAAGACGUGAAGGGACAUGAGGAUCACCCAUGUAGAAGGUUUAAAAA [JL Wide Open 30] | 35.5 | 16.3 | –
GGUUUGCAAGGAUAUACAUGAGGAUCACCCAUGUGAGAGAAAAAAGUGAGAAAGAAAAGUAGAAGGUGCGGACG [salish99-ex3-121] | 22.3 | 62.7 | –
AAAAAGUGAGGAUAUAGCAAAGGUCACGAAAGUGACAAAGGCUAGAAGGCACAUGAGGAUCACCCAUGUCCAAA [Fiskers Exclusion 4 D2 63% 2] | 24.7 | 55.6 | –
ACUUGACAUGAGGAUCACCCAUGUCAGGAUAUAGUAGGACAAAUAAAUAAAAGUUCUACUAGAAGGGAUAUGGA [Design 18: G-U+ 3] | 16.7 | 15.7 | –
CUCAUGUCAGGAUAUCAGUAGUAAAAAAAAAAAAUUACUACUGAGAAGGGACAUGAGGAUCACCCAUGUCCCAA [EX4 305: Super Stable 5] | 30.7 | 36.3 | –
AAAAAACAUGAGGAUCACCCAUGUGAGGAUAUGCAAAACCCAUAUAAAAAGGGAAAAAGUAGAAGGCGCAAAAA [wbt round 1 mod 9] | 20.5 | 17.4 | –
AAAAAGUCAGGAUAUACGUACAUGUCAAAAGACGUGAAGGGACAUGAGGAUCACCCAUGUAGAAGGGACAAGAA [JL Stem Breaker 21] | 106 | 49.6 | –
CUCUUGUGAGGAUAUAGAAGAAAAGAAAAGAAAGAAAAGAACUAGAAGGCACAUGAGGAUCACCCAUGUAAGAA [EteRNA is fun!] | 38.7 | 67.7 | –
AGUUGGCGAGGAUAUACAUGAGGAUCACCCAUGUGAGAGUAAAAAGUGAGAAAGAAAAGUAGAAGGCGCUCACA [JL Lego Mod 14] | 77.5 | 46.3 | –
ACAAGAUCAGGAUAUACAUGAGGAUCACCCAUGUGAAAGAACGAUUAACGACCAGCAAGUAGAAGGGAUCAGGA [Ruby 82] | 20.5 | 28.5 | –
AAAAAACAUGAGGAUCACCCAUGUCAGGAUAUCGAAAAAUAAAUAAAAAUAAAAUAAACGAGAAGGGACAAAAA [May 11] | 39.8 | 44.7 | –
AUAAAACAUGAGGAUCACCCAUGUGAGGAUAUGCGAAAUAAUGAAUAAAGAAAUAAAAGCAGAAGGCACAAAAA [LROPPY Exclusion 1 - v05_deltaG=1.64 break up some As mixed] | 32.8 | 28.9 | –
AAAAUGUUAGGAUAUGUGAAGGCGUCUGAUAGACGAGGCCUGCAGAAGGGACAUGAGGAUCACCCAUGUAAAAA [Mod 1 of Nando's Round 1 Power Srip] | 53.9 | 24.7 | –
ACAGUUACAGGAUAUACAUAGGAAAAAAAAAAAAAAAUUCAACAUGAGGAUCACCCAUGUAGAAGGGUAACUGA [Ex2 Design 173: Random 2B] | 93.3 | 144 | –
AACAGUACAGGAUAUACAUGAGGAUCACCCAUGUGAAAAUUAAGUGGCGUACCACAAAGUAGAAGGGUACUGGA [Moding Maslow revisited (73) 3] | 29.4 | 86.4 | –
AAGAACGCAGGAUAUACAUGAGGAUCACCCAUGUAAAAGAAAGAAGGGAAAGAGAAAAGUAGAAGGGCGAAGAA [Usermaatre-setepenamun Iuput I] | 35.3 | 41.8 | –
AAAAAUGGAGGAUAUACAUGAGGAUCACCCAUGUGUGGCCAUACUAUGUGGGCGUCAGGUAGAAGGCCAAAAAA [Gilly Gone Silly 24 - Jieux - Exclusion 3] | 22.3 | 56 | –

Sequence | apparent KD of MS2 coat protein (MS2 coat protein [1]) [nM] | apparent KD of MS2 coat protein (MS2 coat protein [2]) [nM] | other results
AUGUACCUAGGAUAUACAUGAGGAUCACCCAUGUAUUGGGAGCAAUCAAGUUAAUAUUGUAGAAGGAGGUGAAA [JR_Exc003_Sub316] | 25.7 | 67.9 | –
AACAGGUCAGGAUAUGUGGAAAAAAUAAAAAAAAUAAAAACACAGAAGGGACAUGAGGAUCACCCAUGUCAACA [May 24] | 30 | 25.3 | –
UCCGCACAUGAGGAUCACCCAUGUCAGGAUAUACAAGAAAAUCAGGCUAAUGCCUGAAGUAGAAGGGACGAGGA [Armaingean] | 27.7 | 16 | –
AAAAAGGGAGGAUAUACAUGAGGAUCACCCAUGUAAAAAAACGCGGGAGGGAGGGAAGGUAGAAGGCCCAAAAA [Excls3-IV] | 20.3 | 23 | –
GGAAAACAUGAGGAUCACCCAUGUAAGGAUAUGCUAAGGAAGGAAAAAAACCCACCAGGCAGAAGGUACUAAAG [Janelle Amethyst 18 Mod 4 - Jieux - Exclusion 1] | 23.1 | 47.2 | –
AACUAGUGAGGAUAUACAAGAAAACAAACAAAAAUGAAGGGACAUGAGGAUCACCCAUGUAGAAGGCACUAACA [Diamond 70] | 48.2 | 100 | –
CUCUUGUGAGGAUAUCAAAGAAAAGAAGAGAAAGAAAAGAAUGAGAAGGCACAUGAGGAUCACCCAUGUAAGAA [EteRNA is fun!] | 28.9 | 59.5 | –
AAAAAGUCAGGAUAUUCGGAAGGGAAAGCGCAAACCCAACCGAAGAAGGGACAUGAGGAUCACCCAUGUGGAAA [Ecls4-III 65% - Late G segment 1] | 79 | 88.9 | –
AAGAAGGUAGGAUAUACAUGAGGAUCACCCAUGUAAAAGAAAGAAAAGGGAAAGAAAAGUAGAAGGACCAAGAA [Kheperkheperure Ay] | 32.9 | 44.3 | –
AGCUAGUCAGGAUAUACGAACAUGUAAAAAGACGUGAAGGGACAUGAGGAUCACCCAUGUAGAAGGGACUAGCA [74%, Web mod - With 1 less C's] | 33.9 | 108 | –
AGAAUACAUGAGGAUCACCCAUGUGAGGAUAUCAAAAGAAAAAGAAAAGAAAAGAAAAUGAGAAGGCACAAAAG [EX 1 May 14] | 48.3 | 51.7 | –
AAAAAACAUGAGGAUCACCCAUGUAAGGAUAUGCUCGAAAGUGCGAAAGCACAAACGAGCAGAAGGUACAAAAA [66%, Wbt, 45] | 34.7 | 51.9 | –
AACUGACAUGAGGAUCACCCAUGUCAGGAUAUGACUUCAAAAAAAAAAAAAAAUGAUGUCAGAAGGGACAUGGA [Design 64: Sub-opt MB] | 19.2 | 20.7 | –
AAGAAACAUGAGGAUCACCCAUGUGAGGAUAUGGAAAAGAAAAGAAAAGAAAGAAGAAUCAGAAGGCACAAAGG [Meryhathor] | 46.4 | 26.9 | –
AGGAACCUAGGAUAUACAUGAGGAUCACCCAUGUCACGAGUCAAACACAGGUAUCCUAGUAGAAGGAGGAACAC [Inlaveor] | 22 | 42.1 | –
AUAAAGACAGGAUAUACAUGAGGAUCACCCAUGUAAAAAAAAAAAUGAUCCUCAAAAAGUAGAAGGGUCAAUAA [JR_Exc003_Sub015] | 78.7 | 155 | –
AAAAAACAUGAGGAUCACCCAUGUGAGGAUAUGAUGCGAAUAAAGAAAGAAGAAAGCAUCAGAAGGCACAUAUG [Mod of Disincluded 3 (little more stable fmn state)] | 39.5 | 234 | –
GGAAUAUUUACAGGAUAUGAUUUGUAAAUUCGAUCAGAAGGGUGGAUGUCUUACACGGUUUGUUACAUGAGGAUCACCCAUGUC [SameState NG1 #12] (Eterna round: R96, puzzle: Same State NG 1) | – | – | apparent KD of MS2 coat protein (MS2 coat protein [3]; input ligand: FMN 200 uM): 452 nM; apparent KD of MS2 coat protein (MS2 coat protein [3]; [4]): 253 nM; apparent KD of MS2 coat protein (MS2 coat protein [3]; input ligand: none): 376 nM
GGUCCAGCCUGAGCUGGACAAAAGCAUGUACAUGAGGAUCACCCAUGUCAUGUACAAGCUUUUUGCUCGUCUUAAGU [Mat - hsa-mir-208a - 86] (Eterna round: R96, puzzle: Sensor for hsa-mir-208a) | – | – | apparent KD of MS2 coat protein (MS2 coat protein [3]; input ligand: FMN 200 uM): 625 nM; apparent KD of MS2 coat protein (MS2 coat protein [3]; [4]): 14.1 nM; apparent KD of MS2 coat protein (MS2 coat protein [3]; input ligand: none): 687 nM
UCUUGGUUUUUGCUCGUUUUUUGUGUUGAACAUGAGGAUCACCCAUGUAUUGUACGGUCCAAUUUAGUGGUAGUCCG [JMF 67] (puzzle: Sensor for hsa-mir-208a) | – | – | apparent KD of MS2 coat protein (MS2 coat protein [3]; Eterna round: R95, input ligand: FMN 200 uM): 38.4 nM; apparent KD of MS2 coat protein (MS2 coat protein [3]; Eterna round: R95, input ligand: microRNA oligo, concentration not stated): 25.3 nM; apparent KD of MS2 coat protein (MS2 coat protein [3]; Eterna round: R95, input ligand: none): 38.7 nM

From the supplement of paper PMC9170038
